According to article PMC10830565 (2024):

What was measured:
GST-BCL7A-YFP = target: T1, GST-BCL7A-YFP (Arabidopsis thaliana, UniProt F4JL58); assay: GST pull-down
T1 chain: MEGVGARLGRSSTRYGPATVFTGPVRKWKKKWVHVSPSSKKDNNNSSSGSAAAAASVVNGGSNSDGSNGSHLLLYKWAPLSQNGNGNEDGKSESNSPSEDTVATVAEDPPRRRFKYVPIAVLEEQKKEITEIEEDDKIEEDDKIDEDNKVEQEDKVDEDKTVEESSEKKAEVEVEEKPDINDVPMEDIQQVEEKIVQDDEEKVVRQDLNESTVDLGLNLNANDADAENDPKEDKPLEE

GST-BCL7B-CFP = target: T2, GST-BCL7B-CFP (Arabidopsis thaliana, UniProt Q9FLP2); assay: GST pull-down
T2 chain: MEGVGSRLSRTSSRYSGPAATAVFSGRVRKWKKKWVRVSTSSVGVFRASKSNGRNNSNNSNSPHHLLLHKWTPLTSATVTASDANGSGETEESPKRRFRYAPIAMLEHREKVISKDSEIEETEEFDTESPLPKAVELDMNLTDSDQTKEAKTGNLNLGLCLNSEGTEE

binding result (GST-BCL7A-YFP): binds
binding result (GST-BCL7B-CFP): binds
B1: MBP-BRM (422-952)-HIS (protein)
chain: MQQPRQLNTPTPNLVAPSDTGPLSNSSLQSGQGTQQAQQRSGFTKQQLHVLKAQILAFRRLKKGEGSLPPELLQAISPPPLELQTQRQISPAIGKVQDRSSDKTGEDQARSLECGKESQAAASSNGPIFSKEEDNVGDTEVALTTGHSQLFQNLGKEATSTDVATKEEQQTDVFPVKSDQGADSSTQKNPRSDSTADKGKAVASDGSQSKVPPQANSPQPPKDTASARKYYGPLFDFPFFTRKLDSYGSATANANNNLTLAYDIKDLICEEGAEFLSKKRTDSLKKINGLLAKNLERKRIRPDLVLRLQIEEKKLRLSDLQSRVREEVDRQQQEIMSMPDRPYRKFVRLCERQRLEMNRQVLANQKAVREKQLKTIFQWRKKLLEAHWAIRDARTARNRGVAKYHEKMLREFSKRKDDGRNKRMEALKNNDVERYREMLLEQQTNMPGDAAERYAVLSSFLTQTEDYLHKLGGKITATKNQQEVEEAANAAAVAARLQGLSEEEVRAAATCAREEVVIRNRFTEMNAPKEN
